Results taken from patent US20210061911A1.

Assays:
[1] = biological target: Cynomolgus CD3ε/δ (cynomolgus monkey) (UniProt Q95LI5); test: kinetic binding analysis, method not given
Human CD3ε/δ (human) = Human CD3ε/δ (human) (UniProt P07766); test: kinetic binding analysis, method not given
Human CD3ε/δ (human), sequence (P07766 23-126, stated change not applied, chain 1 of 2): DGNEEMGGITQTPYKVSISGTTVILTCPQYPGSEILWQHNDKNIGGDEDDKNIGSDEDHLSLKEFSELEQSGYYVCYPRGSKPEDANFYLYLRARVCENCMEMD
Human CD3ε/δ (human), sequence (P04234 22-105, stated change not applied, chain 2 of 2, further chain): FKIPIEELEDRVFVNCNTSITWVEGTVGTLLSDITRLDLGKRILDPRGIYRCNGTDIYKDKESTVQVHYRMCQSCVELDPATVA

Cynomolgus CD3ε/δ (cynomolgus monkey), sequence (Q95LI5 22-117, stated change not applied, chain 1 of 2): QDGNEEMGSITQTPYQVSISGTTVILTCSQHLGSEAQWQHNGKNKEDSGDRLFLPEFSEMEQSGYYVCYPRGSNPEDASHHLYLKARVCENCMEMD
Cynomolgus CD3ε/δ (cynomolgus monkey), sequence (Q95LI8 22-105, stated change not applied, chain 2 of 2, further chain): as the sequence (P04234 22-105, stated change not applied, chain 2 of 2, further chain) above, with I5V, N15K, I20V, S32T, D33N, I34N, T64A, S74N, V83L counted along it

B1: DART-A, sequence-optimized CD123×CD3 bi-specific monovalent diabody (bispecific antibody)
chain 1: QAVVTQEPSLTVSPGGTVTLTCRSSTGAVTTSNYANWVQQKPGQAPRGLIGGTNKRAPWTPARFSGSLLGGKAALTITGAQAEDEADYYCALWYSNLWVFGGGTKLTVLGGGGSGGGGEVQLVQSGAELKKPGASVKVSCKASGYTFTDYYMKWVRQAPGQGLEWIGDIIPSNGATFYNQKFKGRVTITVDKSTSTAYMELSSLRSEDTAVYYCARSHLLRASWFAYWGQGTLVTVSSGGCGGGEVAALEKEVAALEKEVAALEKEVAALEK
chain 2: DFVMTQSPDSLAVSLGERVTMSCKSSQSLLNSGNQKNYLTWYQQKPGQPPKLLIYWASTRESGVPDRFSGSGSGTDFTLTISSLQAEDVAVYYCQNDYSYPYTFGQGTKLEIKGGGSGGGGEVQLVESGGGLVQPGGSLRLSCAASGFTFSTYAMNWVRQAPGKGLEWVGRIRSKYNNYATYYADSVKDRFTISRDDSKNSLYLQMNSLKTEDTAVYYCVRHGNFGNSYVSWFAYWGQGTLVTVSSGGCGGGKVAALKEKVAALKEKVAALKEKVAALKE
Kd [1]: 9.2 nM | koff [1]: 0.005 s⁻¹ | kon [1]: 550000 M⁻¹ s⁻¹ | Kd (Human CD3ε/δ (human)): 9 nM | koff (Human CD3ε/δ (human)): 0.005 s⁻¹ | kon (Human CD3ε/δ (human)): 570000 M⁻¹ s⁻¹
